Assays:
[1] = biological target: T1, ICE (Homo sapiens, UniProt P29466); experiment: Inhibition of ICE cleavage of pIL-1β, SDS-PAGE and Western blotting; type: biochemical; set-up: expressed in transfected cells; host or cells: COS-7 cells transfected with pSG5-ICE cDNA, or alternatively lysate of freshly isolated human monocytes; conditions: pIL-1β 5 ng incubated with ICE; peptides 100, 300 or 1,000 μM; Western blotting
T1 sequence (P29466 120-404): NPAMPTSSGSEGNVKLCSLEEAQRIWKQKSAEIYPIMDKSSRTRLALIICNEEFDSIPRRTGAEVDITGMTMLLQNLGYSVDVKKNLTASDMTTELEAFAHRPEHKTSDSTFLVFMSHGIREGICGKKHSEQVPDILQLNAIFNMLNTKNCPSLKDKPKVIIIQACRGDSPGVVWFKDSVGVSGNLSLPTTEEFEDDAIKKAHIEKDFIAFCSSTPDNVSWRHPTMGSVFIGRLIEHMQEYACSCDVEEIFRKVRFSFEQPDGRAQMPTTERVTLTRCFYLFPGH
Protocol: cDNA coding for human ICE has been amplified by PCR. The sequence was confirmed and the cDNA was subcloned into pSG5 expression vector. COS cells were transfected with empty vector (mock) or vector containing ICE cDNA and after 48 hours, cells were analysed for the expression of ICE specific mRNA.
A monocyte lysate, prepared as previously described (11), was also able to convert pIL-1β into a mature form (FIG. 2). Therefore, recombinant ICE or freshly isolated human monocytes were used as a source of ICE enzymatic activity for further experiments.
A source of ICE activity was prepared and its ability to cleave pIL-1β was tested by incubating the reaction at 37° C. for 1 hour. The mixture was then run on SDS-PAGE and the presence of pIL1-β or the mature form was evidenced by Western Blotting.

[2] = biological target: Human recombinant IL-1β precursor, P01584
Chain of Human recombinant IL-1β precursor, P01584 (P01584 whole entry, looked up): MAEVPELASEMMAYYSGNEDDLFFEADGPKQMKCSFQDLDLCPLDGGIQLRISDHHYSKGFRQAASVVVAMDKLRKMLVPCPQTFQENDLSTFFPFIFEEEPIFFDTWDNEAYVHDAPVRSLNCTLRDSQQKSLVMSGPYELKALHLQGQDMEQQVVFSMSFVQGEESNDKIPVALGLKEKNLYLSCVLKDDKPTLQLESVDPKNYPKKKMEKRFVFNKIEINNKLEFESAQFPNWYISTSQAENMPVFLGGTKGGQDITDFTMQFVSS

Molecule	inhibition of ICE activity (FIG. 6) [1]	conversion of pIL-1β into the mature form (Western blotting after 60 minutes at 37° C.) [2]
peptide C: SEQ ID NO:4, designed on the basis of icIL-1raII sequence (MALADLYEEGGGGGGEGEDNADSK)	inhibition of ICE activity	–
peptide S: SEQ ID NO:5, identical to peptide C except for two Ala substituting the two Asp residues (MALAALYEEGGGGGGEGEDNAASK)	inhibition of ICE activity	–
ICE (Interleukin-1β-Converting Enzyme), human (protein) MADKVLKEKRKLFIRSMGEGTINGLLDELLQTRVLNKEEMEKVKRENATVMDKTRALIDSVIPKGAQACQICITYICEEDSYLAGTLGLSADQTSGNYLNMQDSQGVLSSFPAPQAVQDNPAMPTSSGSEGNVKLCSLEEAQRIWKQKSAEIYPIMDKSSRTRLALIICNEEFDSIPRRTGAEVDITGMTMLLQNLGYSVDVKKNLTASDMTTELEAFAHRPEHKTSDSTFLVFMSHGIREGICGKKHSEQVPDILQLNAIFNMLNTKNCPSLKDKPKVIIIQACRGDSPGVVWFKDSVGVSGNLSLPTTEEFEDDAIKKAHIEKDFIAFCSSTPDNVSWRHPTMGSVFIGRLIEHMQEYACSCDVEEIFRKVRFSFEQPDGRAQMPTTERVTLTRCFYLFPGH	–	A monocyte lysate, prepared as previously described (11), was also able to convert pIL-1β into a mature form
